# B1: Streptomyces subtilisin inhibitor (SSI): Streptomyces subtilisin inhibitor derived from actinomycetes (protein)
# chain: DAPSALYAPSALVLTVGKGVSATTAAPERAVTLTCAPGPSGTHPAAGSACADLAAVGGDLNALTRGEDVMCPMVYDPVLLTVDGVWQGKRVSYERVFSNECEMNAHGSSVFAF
# B2: SVP35: neutral metalloprotease of about 35,000 from the cell surface of Streptoverticillium mobaraense IFO13819 (SEQ ID NO: 6) (protein)
# chain: VLRLTATPRTTALRAAALVASAAMVVVGVQTGSASASGDRDSGGLPLTLSASQRTAAIQEAQSGASATAAKIGLSGKEKLIARDVVKDADGTVHTRYERTYDGLPVLGGDLIVHEAKAGRSVTKANDATIALPSTDASLAPAAAKKSALSAAADQKTAKADGQAPRKVVWAAQGKPVLAYETVVTGVQKDGTPSELHVITDAASGKKLYQYEAIETGTGTSTYSGTVPLTTTKSGSQYQLNDGARGGHKTYDLNQGTSGTGSLFTNSTDTWGGGRQTAGVDAHYGAAVTWDFYKNVFGRNGIRNDGKAAYSRVHYGNSYVNAFWSDSCFCMTYGDGQNNKNPLTALDVAAHEMSHGVTAATAKLVYSGESGGLNEATSDIFGTAVEFYANNKTDVGDYLIGEKINIYGDGKPLRYMDKPSKDGKSKDSWYSGIGGVDVHYSSGPANHFFYLLSEGSGKKTINGVDYDSPTADGSKVTGIGRDKAQKIWYKALTTQFTSNTNYAKARTGTLNAAASLYGNNSAEYKAVAAAWSAINVK
# modifications: Streptoverticillium mobaraense
# What was measured:
# SVP70 = assay: Inhibitory activities of various compounds to SVP70 (cleavage of peptide GPSFRAPDS); type: biochemical, Streptoverticillium mobaraense; settings: analogously to (3)-vi); concentrations shown in FIG. 5
# Procedure: (§1) The enzyme solution was added to 20 mM sodium phosphate buffer containing peptide GPSFRAPDS (Peptide Institute) (SEQ ID NO: 11) to yield 170 μl of total liquid volume, and it was reacted at 30° C. for 10 minutes, followed by heating at 95° C. for 5 minutes to terminate the reaction. 80 μl of this solution was analyzed by HPLC under the following conditions and its activity was calculated based on the decreased amount of the substrate.
# (§2) To 20 mM sodium phosphate buffer (pH 7.0) containing various compounds at the concentrations shown in FIG. 5, the purified enzyme solution was added and left for 60 minutes at room temperature. Then Gly-Pro-Ser-Phe-Arg-Ala-Pro-Asp-Ser (SEQ ID NO: 11) was added as a substrate and reacted for 10 minute at 30° C. The relative activity by adding each compound was calculated based on the Gly-Pro-Ser-Phe-Arg-Ala-Pro-Asp-Ser (SEQ ID NO: 11) cleavage activity in the absence of compounds as 100%.
# The inhibitory activities of various compounds to SVP70 were examined analogously to (3)-vi).
# SVP35 = assay: Inhibitory activities of various compounds to SVP35 (cleavage of peptide GPSFRAPDS); type: biochemical, Streptoverticillium mobaraense; settings: concentrations shown in FIG. 5; 60 minutes at room temperature, then substrate 10 minute at 30° C., pH 7.0
# Procedure: as §1, §2
# [1] = test system: Gly-Pro-Ser-Phe-Arg-Ala-Pro-Asp-Ser (SEQ ID NO: 11); assay: Temperature stability of the protease; type: physicochemical; settings: 15 minutes; activity treated at 4° C. defined as 100%
# Procedure: To 10 μl of the purified enzyme solution, 40 μl of 20 mM Tris-HCl buffer (pH 7.5) containing 5 mM calcium chloride and 0.01 mM zinc chloride was added to treat at 4° C. or at from 30° C. to 70° C. for 15 minutes, and then cooled by ice, added 250 μl of 20 mM sodium phosphate buffer (pH 7.0). To this enzyme solution, Gly-Pro-Ser-Phe-Arg-Ala-Pro-Asp-Ser (SEQ ID NO: 11) was added as a substrate and reacted at 30° C. for 5 minutes. When the activity treated at 4° C. was defined as 100%, the remaining activity at each temperature was calculated. […] (see FIG. 4).
# [2] = test system: Gly-Pro-Ser-Phe-Arg-Ala-Pro-Asp-Ser (SEQ ID NO: 11); assay: pH stability of the protease; type: physicochemical
# Procedure: To 10 μl of SVP35 purified enzyme solution, 40 μl of each pH of 0.15 M GTA buffer from pH 3 to pH 10 was added, left at 4° C. overnight, followed by addition of 0.1 M sodium phosphate buffer (pH 7.0) to the liquid volume of 400 μl, and was adjusted to pH 7.0. To these enzyme solutions, Gly-Pro-Ser-Phe-Arg-Ala-Pro-Asp-Ser (SEQ ID NO: 11) was added as a substrate, and reacted at pH 7.0, at 30° C. for 10 minutes.
# The pH stability was examined similarly to (3)-iii).
# [3] = test system: Gly-Pro-Ser-Phe-Arg-Ala-Pro-Asp-Ser (SEQ ID NO: 11); assay: Optimum temperature of the protease; type: biochemical
# Procedure: To the purified enzyme solution diluted with 20 mM Tris-HCl buffer (pH 7.5) containing 5 mM calcium chloride and 0.01 mM zinc chloride Gly-Pro-Ser-Phe-Arg-Ala-Pro-Asp-Ser (SEQ ID NO: 11) was added and reacted at pH 7.0, between 5° C. and 65° C. for 10 minutes. As a result, it was shown that the Optimum temperature of SVP35 was about 45° C. and it had high activity within the range of 40° C. to 50° C.
# The Optimum temperature of SVP70 was examined similarly as (3)-iv). As a result, it was shown that the Optimum temperature of SVP70 was within the range from about 50° C. to 55° C., especially around 55° C. (see FIG. 3).
# [4] = test system: Gly-Pro-Ser-Phe-Arg-Ala-Pro-Asp-Ser (SEQ ID NO: 11); assay: Optimum pH of the protease (peptide cleavage in GTA buffer pH 3 to pH 10); type: biochemical
# Procedure: as §1
# In 0.15 M GTA buffer (buffered by 3,3-dimethyl glutaric acid, Tris (hydroxy methyl) amino methane, 2-amino-2-methyl-1,3-propanediol) from pH 3 to pH 10, SVP35 was allowed to act on Gly-Pro-Ser-Phe-Arg-Ala-Pro-Asp-Ser (SEQ ID NO: 11) as a substrate at 30° C. for 10 minutes.
# The Optimum pH of SVP70 was examined similarly as (3)-ii).
# insulin B and pro-MTG = assay: Substrate specificity (cleavage points, HPLC and sequencing of fragments); type: biochemical; settings: 30° C., 2 hours, pH 7.5
# Procedure: 1 mg/ml of insulin B solution and pro-MTG solution prepared in 20 mM Tris-HCl buffer (pH 7.5) containing 5 mM calcium chloride and 0.01 mM zinc chloride was used as a substrate, and an enzyme solution was added to the solution to react at 30° C. for 2 hours, and then peptide fragments were separated by HPLC under the following conditions:
# The amino acid sequences of the obtained peptide fragments were analyzed by PPSQ-10 (Shimadzu Co. Ltd.) to characterize the sequences of the cleavage points for SVP35.
# The substrate specificity was examined similarly as described in (3)-i).
# pro-MTG = assay: Conversion of pro-MTG into active MTG, substrate:enzyme 200:1 (SDS-PAGE, hydroxamate method); type: biochemical, Streptoverticillium mobaraense; settings: substrate:enzyme=200:1, 30° C.
# Procedure: Using pro-MTG (1 mg/ml) expressed by Corynebacterium glutamicum as a purified substrate, the neutral protease (SVP35, SVP70) from Streptoverticillium mobaraense or the neutral metalloprotease SGMP II from Streptomyces griseus was mixed in the ratio of the substrate:the enzyme=200:1, the mixture was reacted at 30° C. After 0, 1, 2, 4, 7, 20 hours, the reaction mixture was sequentially picked up, and the aliquots of the reaction mixture were mixed with SDS-PAGE sample buffer and heated at 95° C. for 3 minutes, and then subjected to SDS-PAGE according to Laemmli's method (Nature, 227, 680-685 (1970)). […] In addition, SGMP II was purified from actinase (Kakenseiyaku Co. Ltd.) according to the reference method (J. Biocem., Vol. 110, p. 339-344, 1991).
# [5] = activity at pH 7.0 defined as 100%
molecule,measurement,setting,value
O[C@H](CS)[C@H](O)CS (racemic) [dithiothreitol],inhibition of SVP70 activity,SVP70,strong inhibitory action
"c1cnc2c(c1)ccc1cccnc12 [1,10-phenanthroline]",inhibition of SVP35 Gly-Pro-Ser-Phe-Arg-Ala-Pro-Asp-Ser cleavage activity,SVP35,strongly inhibited
same,inhibition of SVP70 activity,SVP70,strong inhibitory action
O=C(O)CN(CCN(CC(=O)O)CC(=O)O)CC(=O)O [ethylene diamine tetraacetic acid],inhibition of SVP35 Gly-Pro-Ser-Phe-Arg-Ala-Pro-Asp-Ser cleavage activity,SVP35,strongly inhibited
same,inhibition of SVP70 activity,SVP70,strong inhibitory action
CC(C)C[C@H](NP(=O)(O)O[C@@H]1O[C@@H](C)[C@H](O)[C@@H](O)[C@H]1O)C(=O)N[C@@H](Cc1c[nH]c2ccccc12)C(=O)O [phosphoramidon],inhibition of SVP35 Gly-Pro-Ser-Phe-Arg-Ala-Pro-Asp-Ser cleavage activity,SVP35,strongly inhibited
same,inhibition of SVP70 activity,SVP70,strong inhibitory action
NC(N)=O [urea],inhibition of SVP70 activity,SVP70,strong inhibitory action
B1,inhibition of SVP35 Gly-Pro-Ser-Phe-Arg-Ala-Pro-Asp-Ser cleavage activity,SVP35,strongly inhibited
same,inhibition of SVP70 activity,SVP70,strong inhibitory action
B2,remaining activity after treatment at 50° C.,[1],80%
same,remaining activity after treatment at 60° C.,[1],lost its activity
same,activity after treatment at pH 4-10,[2]; activity at pH 4.0 defined as 100%,≥ 90%
same,pH Stability (stable pH range),"[2]; left at 4° C. overnight at each pH, then reacted at pH 7.0, 30° C., 10 minutes",4-10
same,activity within 40° C. to 50° C. relative to that at 45° C.,"[3]; pH 7.0, 10 minutes",≥ 80%
same,Optimum temperature,"[3]; pH 7.0, between 5° C. and 65° C., 10 minutes",about 45 °C
same,Optimum pH,"[4]; 0.15 M GTA buffer pH 3 to pH 10, 30° C., 10 minutes",around 7.0
same,activity at pH 6.0-8.0,[4]; [5],≥ 70%
same,activity at pH 6.5-7.5,[4]; [5],≥ 80%
same,amino acids recognized at the cleavage site,insulin B and pro-MTG,aromatic amino acids and hydrophobic amino acids with bulky side-chains positioned at P′ 1
same,cleavage points (residue before which the substrate is cleaved),insulin B and pro-MTG,"especially Phe, often Leu, sometimes Tyr, Trp, Ile, Val"
same,"transglutaminase (TG) activity of the picked up fraction, hydroxamate method",pro-MTG,sufficient activity was confirmed
same,conversion of pro-MTG to the mature form (SDS-PAGE),pro-MTG; 0-20 hours,converted to the mature forms
same,reduction of produced MTG after long-term reaction,pro-MTG; up to 20 hours,not reduced even after a long-term reaction
